Results from the RNAGym collection of RNA variant scans (doi:10.1021/acssynbio.7b00057).

B1: Pistol ribozyme (parent)
chain: GGGUCGUUGUUCCAUAAUCGCGUGGAUAUGGCACGCAAGUUUCUACCGGGCACCGUAAAUGUCCGACUGGAGCCGUUCGGGCGGCUAUAAACAGACCUCAGGCCCGAAGCGUGGCGGCACCUGCCGCCGGUGGUAAAAAAGAUCGGAAGAGCACACGUCU

Variants of: B1
Test: aptazyme ON/OFF ratio, guanine; higher = stronger switching; co-transcriptional cleavage with and without guanine

Variant	aptazyme ON/OFF ratio
U10G C12U	1.58
U10G C12G	1.12
U7C U8A G9A U10A U11A C12A	1.2
U8C G9C U10A C12A	1.11
U7G U8G G9A U10C U11G C12A C13U	1.19
U7G G9U U10G U11A C12G C13U	1.18
U8G G9C U10A U11C C12A C13G	1.07
U7G G9C U10A U11A C13U	1.45
U7G G9U U10A C13U	1.35
U7G U8G G9U U10C U11A C12G C13G	1.15
U7G U8G G9U U10C U11A C12G C13A	1.14
U7C U8C G9A U10C C12U C13U	1.32
U7A U8G G9C U10G U11G C12U C13A	1.2
U7C U8A G9C U10G U11A C12A C13U	1.33
G9U U10A U11G C12G C13A	1.1
U7C U10A U11C C12A C13A	1.1
U7A U8A U10C C13U	1.98
U7A U8A U10C C13A	1.11
U8A G9A U10C U11G C12U	1.26
U10C C13U	1.08
U7G U8C G9A U10G	3.04

Variant	aptazyme ON/OFF ratio
U7G U8G G9U U10A U11G C13A	1.07
U7G U8G G9C U10A C12U C13G	1.03
G9U U11A C12A C13U	1.23
U7C U8A G9U U10C U11G C13U	1.19
U7G U10C U11A	1.32
U7G U8A G9C U10A U11A C13G	1.04
U7G U8C G9U U10C U11G C12A	1.75
U7G U8G G9U U11C C12U C13G	1.38
U7C U8C G9U U10A C12U C13G	1.14
U7A U8G G9A U10G U11C C12G	1.38
U7C G9C C12U C13G	1.04
U7G U8G G9U U10C U11G	1.28
U7C U8C U10C U11G C12U C13U	1.3
U7G U8G G9C U11A C12U	1.53
U7G U8C G9C U10G U11G	1.17
U7A U8A U10C U11G C12G C13A	1.17
U7C U8A G9A U10A U11G C13G	1.02
U8G G9C U10A U11A C12A C13U	1.18
U8A G9C U10C C12A C13U	0.995
U7G G9U U10G C12G C13A	1.15
U7A G9C U10A U11G C12A C13U	1.05

Variant	aptazyme ON/OFF ratio
U7G U8G G9U U10G U11A C12U	1.27
U7A U8G G9U U10C C12G	1.24
U7C U8G G9C C12A C13U	1.31
U7A U8C G9A U11A C12A C13A	1.31
U7G U8A G9U U10C U11A C12G C13A	1.1
U7G U11A C12U C13U	1.28
U8C U10G U11C C12U C13U	1.28
U11C C12G C13U	1.33
U7G U8C G9C U10G U11C C12G C13A	1.29
U8A U10A U11C C12G C13G	1.27
U8C U10G C12G C13U	1.12
U7A U8A G9U U10G U11C C12A C13G	1.15
U7A U8A G9U U11C	1.09
U8G U10C U11A C12G	1.26
U7A U8G G9U U11A C12A C13A	1.53
G9U U10A U11A	2.34
U7A U8A G9C U10C U11C C12A C13G	1.01
U7A U8A G9C U10C U11C C12A C13U	1.02
U8A G9C U10C U11G C12G	1.12
U7C U8G G9U U11C C12U C13G	1.07
U7A U8G G9C U10G C12U C13G	1.23

Variant	aptazyme ON/OFF ratio
U7G U8A G9A U10A U11C C12G C13G	1.05
U8G G9C U10G C12A C13A	1.11
U7G U11A C12A C13A	1.17
U7C U8G G9C U10C C12G	1.08
U8A G9U U10C C12A C13A	1.09
U7C U8A G9C U10A U11C C13G	1.05
U7G U8A G9C U10G U11C C12A	1.04
U7G U8A G9C U10C C12G C13U	1.07
U7A U8G G9A C13G	1.18
U8A G9C U10A U11G C13A	1.11
U7C U8A G9U U11C C12A C13U	1.2
U7C U8G U11G C12A C13U	1.18
U7A U8C G9U U10A U11C C12A C13U	1.23
G9U U11A C12G C13A	1.82
U8A G9A U11A C13U	1.16
U7C U8G G9C U10C U11A C12U	1.09
U7C U10G U11G C12G C13U	1.16
U8C G9A U10A C12G	1.29
U7G U10A U11A C12U C13A	1.09
U7A U8A G9U U10C U11A C13U	1.08
